Test results from the supplement of paper PMC9732359.
± gives the uncertainty stated by the source.

Assay: protein stability index of a GFP-peptide fusion (yeast GPS) (PSI 1-4); higher = more stable; sorted into four equal gates, so the index is relative within each strain
Outline: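 The protein stability index of a peptide was calculated by multiplying its read frequency in each gate by that gate's number and adding the products. The peptides were tiled 17-residue stretches of yeast proteins, fused downstream of GFP on a Cherry-expressing plasmid and carried in yeast as a pooled library. Mid-log cultures in leucine-free medium were sorted into four equal gates by GFP/Cherry ratio, and each gate's plasmids were PCR-amplified and Illumina-sequenced.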

Row | Sequence | protein stability index (doa10∆) | protein stability index (pdr5∆) | protein stability index (san1∆) | protein stability index (ubr1∆)
1 | ELSVVLSGIIQDIYYLA [RRI2] | 2.32 ± 0.12 | 2.24 ± 0.14 | 2.02 ± 0.13 | 2.6 ± 0.092
2 | IEAASTTQDQCKLTLDI [RPB8] | 2.92 ± 0.06 | 3.12 ± 0.077 | 2.81 ± 0.042 | 3.07 ± 0.078
3 | KYKQLLLKDDTYQLCVR [RPN3] | 1.46 ± 0.073 | 1.78 ± 0.29 | – | 1.6 ± 0.18
4 | FFLSIYFFYASRPEYSC [YJL039C/NUP192] | 1.41 ± 0.056 | 1.35 ± 0.13 | 1.19 ± 0.11 | 1.38 ± 0.057
5 | QERKDFLKKVMDTIQDK [ECM29] | 3.12 ± 0.13 | 3.41 ± 0.12 | 3.35 ± 0.11 | 3.17 ± 0.072
6 | EFETPTFLVSNDDEVSQ [RPN14] | 2.69 ± 0.092 | 2.89 ± 0.084 | 2.72 ± 0.079 | 2.77 ± 0.13
7 | RILNFFDKNTKTTPNTA [YMR153W/NUP53] | 2.42 ± 0.051 | 2.53 ± 0.055 | 2.56 ± 0.048 | 2.43 ± 0.047
8 | NIIASPLSAGFNYGKLP [SIN4] | 2.62 ± 0.079 | 2.72 ± 0.086 | 2.68 ± 0.048 | 2.54 ± 0.076
9 | LAINAKTITSGLKYALA [RPB2] | 2.65 ± 0.057 | 2.83 ± 0.073 | 2.4 ± 0.061 | 2.79 ± 0.044
10 | LITLFNKGELETQPGCN [RPO31] | 2.71 ± 0.1 | 3.26 ± 0.083 | 2.98 ± 0.097 | 2.94 ± 0.11
11 | TRIKLLLTKNVSCYRPR [RPS6A] | 2.11 ± 0.22 | 2.64 ± 0.14 | 2.88 ± 0.11 | 2.94 ± 0.17
12 | LKLPLEINYAFSMDEEF [SIR3] | 2.13 ± 0.07 | 2.18 ± 0.058 | 2.73 ± 0.056 | 2.2 ± 0.048
13 | TVTNSKFRSSILRKSFD [RPN2] | 2.88 ± 0.1 | 3.07 ± 0.091 | 2.66 ± 0.094 | 3.31 ± 0.091
14 | GVFDPASYAKYLIDHIK [RPL22A] | 2.73 ± 0.25 | – | 3.35 ± 0.16 | –
15 | VVSILEAGDSDILTTLA [RPL30] | 3.12 ± 0.059 | 2.92 ± 0.074 | 3.01 ± 0.068 | 3.03 ± 0.061
16 | VSKKWAAAGVCEKWAAS [RPL14B] | 2.64 ± 0.077 | 3.1 ± 0.14 | 2.73 ± 0.084 | 2.51 ± 0.066
17 | VDENGDPIWQHQSLGPD [RET1] | 3.25 ± 0.056 | 3.21 ± 0.081 | 3.33 ± 0.042 | 3.27 ± 0.084
18 | PKKYKENNTDSARKELE [SMC1] | 2.96 ± 0.059 | 2.8 ± 0.065 | 3.09 ± 0.046 | 3.31 ± 0.057
19 | FTNPSVDIQIINQYQLL [SWI1] | 1.44 ± 0.055 | 1.66 ± 0.07 | 1.43 ± 0.11 | 1.31 ± 0.063
20 | PTESYLQYIIHDTLNNE [BRR2] | 2.22 ± 0.058 | 2.43 ± 0.07 | 2.37 ± 0.097 | 2.26 ± 0.065
21 | KCVVIHNGSHRTVAGFS [ARP7] | 2.67 ± 0.051 | 2.74 ± 0.048 | 2.54 ± 0.051 | 2.67 ± 0.035
22 | KLSDSKTSNIESVPIYS [BRR2] | 2.5 ± 0.054 | 2.64 ± 0.062 | 2.33 ± 0.042 | 2.6 ± 0.054
23 | NVSLIKIEGVATPQDAQ [RPL33A] | 2.74 ± 0.082 | 2.52 ± 0.061 | 2.38 ± 0.11 | 2.37 ± 0.059
24 | KKFGGKGARSRFQKSYR [RPS16A] | 3.29 ± 0.12 | 3.27 ± 0.097 | 3.27 ± 0.072 | 3.32 ± 0.079
25 | KYSAITSSIFQESFNSV [NUT1] | 2.22 ± 0.053 | 2.37 ± 0.046 | 2.7 ± 0.047 | 2.48 ± 0.037
26 | YQRSKRVNNPNVSLIKI [RPL33A] | 3.1 ± 0.067 | 3.15 ± 0.065 | 2.93 ± 0.059 | 3.21 ± 0.045
